The results in this text go back to paper PMC3430658, “Investigation of Real-Time Photorepair Activity on DNA via Surface Plasmon Resonance”.

Series [1] deals with T1, CRY-DASH (VcCry1, MBP fusion) (Vibrio cholerae, UniProt Q9KR33 1-461).
T1 sequence: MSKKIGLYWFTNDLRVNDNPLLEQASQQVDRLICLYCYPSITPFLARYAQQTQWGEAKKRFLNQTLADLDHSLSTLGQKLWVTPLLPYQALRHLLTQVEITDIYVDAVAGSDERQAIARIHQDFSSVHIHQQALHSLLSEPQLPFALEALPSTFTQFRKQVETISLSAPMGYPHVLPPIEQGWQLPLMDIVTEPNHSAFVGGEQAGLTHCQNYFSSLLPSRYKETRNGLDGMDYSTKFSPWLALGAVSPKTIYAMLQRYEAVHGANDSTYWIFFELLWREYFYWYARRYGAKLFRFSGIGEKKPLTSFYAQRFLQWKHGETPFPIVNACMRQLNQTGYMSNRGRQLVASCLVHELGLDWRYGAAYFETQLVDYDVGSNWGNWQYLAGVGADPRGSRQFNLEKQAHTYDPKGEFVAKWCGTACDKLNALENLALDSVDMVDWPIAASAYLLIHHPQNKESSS
The experiment in a line: SPR; photoactivated, DTT; repair during injection; SPR (SensiQ Discovery, neutravidin BioCap chip), 1X PBS (10 mM phosphate, 2.7 mM KCl, 137 mM NaCl) pH 7.4, 0.005% Tween 20, 25 C, 50 uL/min; protein in PBS with 1 mM DTT. The following applies: protein: recombinant; tags: MBP (pMal-c2x, pUNC2002); label: 5'-biotin. (SPR reads the build-up and loss of mass on a sensor chip optically.)

For series [2], the target named is T2, VcPHR (CPD photolyase, MBP fusion) (Vibrio cholerae, UniProt Q9KNA8 1-469).
T2 sequence: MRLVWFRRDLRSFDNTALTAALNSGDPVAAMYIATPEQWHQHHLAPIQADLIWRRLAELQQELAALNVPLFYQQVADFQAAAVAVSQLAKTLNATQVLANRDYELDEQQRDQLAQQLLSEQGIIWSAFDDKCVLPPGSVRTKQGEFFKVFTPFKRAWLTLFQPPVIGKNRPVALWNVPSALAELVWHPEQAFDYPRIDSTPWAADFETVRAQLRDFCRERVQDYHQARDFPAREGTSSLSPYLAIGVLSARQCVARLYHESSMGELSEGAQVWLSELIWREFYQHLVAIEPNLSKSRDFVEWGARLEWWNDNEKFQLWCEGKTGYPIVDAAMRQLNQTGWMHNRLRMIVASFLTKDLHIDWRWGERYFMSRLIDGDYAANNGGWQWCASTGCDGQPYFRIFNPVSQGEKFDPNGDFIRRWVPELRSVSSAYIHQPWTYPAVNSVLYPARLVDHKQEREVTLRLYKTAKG
Described as above. The following applies: protein: recombinant, tags: MBP (pMal-c2x, pUNC2001).

The target in series [3] is T1, CRY-DASH (VcCry1, MBP fusion). The experiment in a line: SPR; photoactivated, DTT; no significant binding, similar to BSA; SPR (SensiQ Discovery, neutravidin BioCap chip), 1X PBS (10 mM phosphate, 2.7 mM KCl, 137 mM NaCl) pH 7.4, 0.005% Tween 20, 25 C, 50 uL/min; protein in PBS with 1 mM DTT. The note with it: protein: recombinant; tags: MBP (pMal-c2x, pUNC2002); label: 5'-biotin on strand 1; blunt.

For series [4], the target named is T2, VcPHR (CPD photolyase, MBP fusion). The experiment in a line: SPR; photoactivated, DTT; described as nonspecific; SPR (SensiQ Discovery, neutravidin BioCap chip), 1X PBS (10 mM phosphate, 2.7 mM KCl, 137 mM NaCl) pH 7.4, 0.005% Tween 20, 25 C, 50 uL/min; protein in PBS with 1 mM DTT. The note with it: protein: recombinant, tags: MBP (pMal-c2x, pUNC2001).
Series [5] has as its target T1, CRY-DASH (VcCry1, MBP fusion). The experiment in a line: SPR; photoactivated, DTT; nonspecific, similar to BSA; SPR (SensiQ Discovery, neutravidin BioCap chip), 1X PBS (10 mM phosphate, 2.7 mM KCl, 137 mM NaCl) pH 7.4, 0.005% Tween 20, 25 C, 50 uL/min; protein in PBS with 1 mM DTT. The following applies: protein: recombinant; tags: MBP (pMal-c2x, pUNC2002); label: 5'-biotin.

The target is the same in series [6]. Put plainly: SPR; photoactivated, DTT; described as nonspecific; SPR (SensiQ Discovery, neutravidin BioCap chip), 1X PBS (10 mM phosphate, 2.7 mM KCl, 137 mM NaCl) pH 7.4, 0.005% Tween 20, 25 C, 50 uL/min; protein in PBS with 1 mM DTT. The following applies: protein: recombinant; tags: MBP (pMal-c2x, pUNC2002); label: 5'-biotin on strand 1; blunt.
The mark [7] stands for this setting: label: 5'-biotin on strand 1, blunt.

As to GACGCAGATCTACGAATTCGCTTAATTCGCTGCACCGGATCCCGCTAG (ssDNA, UV 254 nm irradiated, mostly CPD (mixed lesions, positions not defined)) [UV-damaged ssDNA 48-mer], the Kd in series [1] is 0.0637 µM; in series [2] (label: 5'-biotin) it was 0.0012 µM.

B1: UV-damaged dsDNA 48-mer (dsDNA)
DNA 1: GACGCAGATCTACGAATTCGCTTAATTCGCTGCACCGGATCCCGCTAG
DNA 2: CTAGCGGGATCCGGTGCAGCGAATTAAGCGAATTCGTAGATCTGCGTC
modifications: strand 1 UV 254 nm irradiated, mostly CPD (mixed lesions, positions not defined); complement undamaged
Regarding B1, the Kd is 0.022 µM in series [2] (setting [7]) and 17.8 µM in series [3].
As to GACGCAGATCTACGAATTCGCTTAATTCGCTGCACCGGATCCCGCTAG (ssDNA) [undamaged ssDNA 48-mer], the dissociation constant Kd came out at 14 µM in series [4] (label: 5'-biotin) and 117 µM in series [5].

B2: undamaged dsDNA 48-mer (dsDNA)
DNA 1: B1 DNA 1
DNA 2: B1 DNA 2
Consider B2, for which the Kd in series [6] was found to be 52.1 µM; in series [4] (setting [7]), 18.7 µM.

In general, Kd refers to the concentration at which binding is half-saturated.
